The text below walks through data of patent US20140329228A1 (Ushio Denki Kabushiki Kaisha, priority 2011, published 2014).

Marks after values point to notes of the source that are not given here.

Common to all, as to assay type: binding
Test [1] can be described thus: Fluorescence enhancement of fluoro-labeled Fab complex / scFv with ketamine. Conditions: for Fluorescence enhancement: 1.0 mg/mL Ketamine versus absence of antigen, Ex/Em 530/580.
Test [2] is described as follows: Fluorescence enhancement of fluoro-labeled Fab complex with MDA. The settings on record: antigen MDA 100 μg/mL versus absence of antigen.
Test [3] is described as follows: Fluorescence enhancement of fluoro-labeled Fab complex / scFv with morphine. Conditions: antigen Morphine 100 μg/mL versus absence of antigen.
Test [4] is described as follows: Fluorescence enhancement of fluoro-labeled Fab complex / scFv with cocaine. The settings on record: antigen Cocaine 100 μg/mL versus absence of antigen.
Test [5] can be described thus: Measurement of ractopamine using fluoro-labeled Fab complex. Conditions: 3.4 μg/mL Ractopamine versus absence of antigen, Ex/Em 530/580.
The nature of test [6]: Measurement of cannabinoid component THC using fluoro-labeled Fab complex. Conditions: 100 μg/mL THC versus absence of antigen, Ex/Em 530/580.
A short description of test [7]: Measurement of cotinine using fluoro-labeled Fab complex. The settings on record: 3.5 μg/mL Cotinine versus absence of antigen, Ex/Em 530/580.

B1: Anti-Ketamine: same-color double-label Fab complex of anti-ketamine antibody; TAMRA-labeled VL (SEQ ID NO: 31) and VH (SEQ ID NO: 32) (antibody, V domains shown)
VH: QVQLKESGPGLVAPSQSLSITCTVSGFALTGYGVNWVRQPPGKGLEWLGMIWGDGNTDYNSALKSRLSISKDNSKSQVFLKMNSLQTDDTARYYCARGNGYFYVLDYWGQGTSVTVSS
VL: QAVVTQESALTTSPGETVTLTCRSSTGAVTTSNYANWVQEKPDHLFTGLIGGTNNRAPGVPARFSGSLIGDKAALTITGAQTEDEAIYFCSLWYSNHLVFGGGTKLTVLGQ
modifications: Fab; TAMRA labels; Keta-VH-32; Keta-VL-31
On to B1, for which the Fluorescence enhancement in test [1] was 2.0*^2; in test [1] (listed as anti-ketamine), 2.0.

B2: Anti-Cocaine: same-color double-label Fab complex of anti-cocaine antibody; TAMRA-labeled VL (SEQ ID NO: 27) and VH (SEQ ID NO: 28) (antibody, V domains shown)
VH: DVTLQESGGGLVQPGGSMKLSCAASGFTFSDAWVDWVRQSPGKGLEWVAEIRNKANNHATKYTESVKGRFTISRDDSKSSVYLQMNSLRAEDTGIYYCTSVPQLGRGFAYWGQGTLVTVSS
VL: DIVMTQAAPSVPVTPGESVSISCRSSKSLLHSNGYTYLHWFLQRPGQSPQLLIYRVSNLASGVPDRFSGSGSGTAFTLRFSRVEAEDVGVYYCMQHLEYPFTFGSGTKLEIKR
modifications: Fab; TAMRA labels; Coca-VH-28; Coca-VL-27
Consider B2, for which the “Fluorescence enhancement in the presence of 100 μg/mL antigen” value in test [2] amounted to 0.9; in test [1] (antigen Ketamine 100 μg/mL versus absence of antigen) it was 0.9; in test [3], 0.9; in test [4] it was 3.7.

B3: Anti-Ractopamine: same-color double-label Fab complex of anti-ractopamine antibody; TAMRA-labeled VL (SEQ ID NO: 17) and VH (SEQ ID NO: 18) (antibody, V domains shown)
VH: DVQLVESGPGLVKPSQSLSLTCTVTGYSITSDYAWNWIRQFPGNKLEWMGYIFYSGSTSYNPSLKSRISITRDTSKNQFFLQLNSVTTEDTATYFCARLAYYYDYDGYAMDYWGQGTSVTVSS
VL: DILMTQTPLSLPVSLGDQASISCRSSQNIVHSDGNTYLEWYLQKPGQSPKLLISKVSNRFSGVPDRFSGSGSGTDFTLKISRVEAEDLGIYYCFQGSHVPWTFGGGTKLEIKR
modifications: Fab; TAMRA labels; Ract-VH-18; Ract-VL-17
With B3, the Fluorescence enhancement in test [5] was 2.3*^1; in test [5] (listed as anti-ractopamine) it was 2.3.

B4: Anti-THC: same-color double-label Fab complex of anti-THC antibody; TAMRA-labeled VL (SEQ ID NO: 29) and VH (SEQ ID NO: 30) (antibody, V domains shown)
VH: EVKLVESGGGLVKPGGSLKLSCAASGFTFNNYVMVWLRQTPEKRLEWVASISRGGSTYYPDSVKGRFTISRDNARNILYLQMSSLRSEDTAMYYCVRGTTIVAGDVWGAGTTVTVSS
VL: DIVLTQSPTTMAASPGEKITITCSASSSISSNYLHWYQQKPGFSPKLLIYRTSNLASGVPARFSGSGSGTSYSLTIGTMEAEDVATYYCQQGSSIPLTFGAGTKLELKR
modifications: Fab; TAMRA labels; THC-VH-30; THC-VL-29
For B4, the Fluorescence enhancement in test [6] was 1.3*^1; in test [6] (listed as anti-THC) it was 1.3.

B5: Anti-cotinine: same-color double-label Fab complex of anti-cotinine antibody; TAMRA-labeled VL (SEQ ID NO: 19) and VH (SEQ ID NO: 20) (antibody, V domains shown)
VH: QQQLVESGGRLVTPGGSLTLTCTASGFSLNNYWMSWVRQAPGKGLEWIGDIHGNRGFNYHASWAKGRFTVSRTSTTVDLRMTSLTTEDTAIYFCARADDSGSHDIWGPGTLVTVSS
VL: ELDLTQTPSPVSAAVGDTVTINCQSSQSVYSAKLSWYQQKPGQPPKLLIYYGSTLASGVPSRFKGSGSGTQFSLTISDVQCADAATYYCQGTYYGPDWYFAFGGGTEVVVKR
modifications: Fab; TAMRA labels; Coti-VH-20; Coti-VL-19
Turning to B5, the Fluorescence enhancement in test [7] was 1.9*^2; in test [7] (listed as anti-cotinine), 1.9.
